Reference: article PMC2474558

Target: hDOP–C352I Gαi2
Test: radioligand binding

## DADLE (D-Ala^2, Leu^5-enkephalin) (peptide)
  pKi: 9
